Positions of bridges follow the written chain, without caps; N, C: chain ends. Non-standard residues stand in square brackets, D forms with d. NMeW = CN[C@@H](Cc1c[nH]c2ccccc12)C(=O)O; 2Nal = N[C@@H](Cc1ccc2ccccc2c1)C(=O)O; d2Nal = N[C@H](Cc1ccc2ccccc2c1)C(=O)O; d(αMeF) = C[C@@](N)(Cc1ccccc1)C(=O)O; NMeH = CN[C@@H](Cc1c[nH]cn1)C(=O)O; Cit = NC(=O)NCCC[C@H](N)C(=O)O; NMeA = CN[C@@H](C)C(=O)O; Nle = CCCC[C@H](N)C(=O)O; Aib = CC(C)(N)C(=O)O
Tests used:
Test in all cases: cell-based or functional assay
human MC3R = human MC3R (human, UniProt P41968 1-323)
human MC4R receptor [1] = target: T1, human MC4R receptor (human, UniProt P32245 1-332)
human MC4R receptor [2] = target: T1, human MC4R receptor; remark: listed apart in the source

Chain of human MC3R (P41968 whole entry): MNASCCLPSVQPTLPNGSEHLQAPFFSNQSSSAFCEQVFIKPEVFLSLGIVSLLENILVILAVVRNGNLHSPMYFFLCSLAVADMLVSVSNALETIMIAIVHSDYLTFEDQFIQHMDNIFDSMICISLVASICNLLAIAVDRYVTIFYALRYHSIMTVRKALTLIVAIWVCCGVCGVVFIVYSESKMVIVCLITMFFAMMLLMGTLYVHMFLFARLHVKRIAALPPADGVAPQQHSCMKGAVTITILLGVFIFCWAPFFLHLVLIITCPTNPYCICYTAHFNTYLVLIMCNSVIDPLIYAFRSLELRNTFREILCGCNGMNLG
T1 sequence (P32245 whole entry): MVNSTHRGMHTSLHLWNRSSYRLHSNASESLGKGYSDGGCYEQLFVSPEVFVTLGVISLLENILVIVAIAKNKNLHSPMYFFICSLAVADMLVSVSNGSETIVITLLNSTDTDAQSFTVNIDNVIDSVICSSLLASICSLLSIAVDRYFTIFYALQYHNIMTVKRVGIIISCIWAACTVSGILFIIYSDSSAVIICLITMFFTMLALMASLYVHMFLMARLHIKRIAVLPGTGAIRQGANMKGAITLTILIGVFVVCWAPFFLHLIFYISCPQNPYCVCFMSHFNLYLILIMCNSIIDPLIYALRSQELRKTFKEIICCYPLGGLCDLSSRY

| Binder | cAMP EC50 (human MC3R) | cAMP EC50 (human MC4R receptor [1]) | MC4R selectivity vs MC1R (human MC4R receptor [2]) | % max activation (human MC3R) | % max activation (human MC4R receptor [1]) | MC4R selectivity vs MC3R (human MC4R receptor [2]) |
| --- | --- | --- | --- | --- | --- | --- |
| Ac-RC[dA]R[dF]R[dF]C-NH2 (disulfide 2-8; SMILES CC(=O)N[C@@H](CCCNC(=N)N)C(=O)N[C@H]1CSSC[C@@H](C(N)=O)NC(=O)[C@@H](Cc2ccccc2)NC(=O)[C@H](CCCNC(=N)N)NC(=O)[C@@H](Cc2ccccc2)NC(=O)[C@H](CCCNC(=N)N)NC(=O)[C@@H](C)NC1=O) [CTX-1265] | 29.9 nM | 703 nM | 0.02 |  |  |  |
| {CH2CO}-[dA][NMeH][dF]R[NMeW]C-NH2 (thioether N-6; SMILES C[C@H]1NC(=O)CSC[C@@H](C(N)=O)NC(=O)[C@H](Cc2c[nH]c3ccccc23)N(C)C(=O)[C@H](CCCNC(=N)N)NC(=O)[C@@H](Cc2ccccc2)NC(=O)[C@H](Cc2c[nH]cn2)N(C)C1=O) [CTX-1203] | 2610 nM | 16 nM | 2.32 | 107% | 109% | 161 |
| Ac-[Nle]CH[2Nal]R[dW]CRFG-NH2 (disulfide 2-7; SMILES CCCC[C@H](NC(C)=O)C(=O)N[C@H]1CSSC[C@@H](C(=O)N[C@@H](CCCNC(=N)N)C(=O)N[C@@H](Cc2ccccc2)C(=O)NCC(N)=O)NC(=O)[C@@H](Cc2c[nH]c3ccccc23)NC(=O)[C@H](CCCNC(=N)N)NC(=O)[C@H](Cc2ccc3ccccc3c2)NC(=O)[C@H](Cc2c[nH]cn2)NC1=O) [CTX-2128] | 39 nM | 7210 nM |  | 99% | 87% | 0.01 |
| Ac-RC[dA]R[d(αMeF)]RWC-NH2 (disulfide 2-8; SMILES CC(=O)N[C@@H](CCCNC(=N)N)C(=O)N[C@H]1CSSC[C@@H](C(N)=O)NC(=O)[C@H](Cc2c[nH]c3ccccc23)NC(=O)[C@H](CCCNC(=N)N)NC(=O)[C@@](C)(Cc2ccccc2)NC(=O)[C@H](CCCNC(=N)N)NC(=O)[C@@H](C)NC1=O) [CTX-1278] | 418 nM | 36 nM | 1.13 | 86% | 105% | 12 |
| {CH2CO}-GH[dF]RFC-NH2 (thioether N-6; SMILES N=C(N)NCCC[C@@H]1NC(=O)[C@@H](Cc2ccccc2)NC(=O)[C@H](Cc2c[nH]cn2)NC(=O)CNC(=O)CSC[C@@H](C(N)=O)NC(=O)[C@H](Cc2ccccc2)NC1=O) [CTX-1653] | > 10000 nM | 1220 nM | 0.83 |  | 83% | > 8 |
| {CH2CO}-GR[dF]RFC-NH2 (thioether N-6; SMILES N=C(N)NCCC[C@@H]1NC(=O)CNC(=O)CSC[C@@H](C(N)=O)NC(=O)[C@H](Cc2ccccc2)NC(=O)[C@H](CCCNC(=N)N)NC(=O)[C@@H](Cc2ccccc2)NC1=O) [CTX-1654] | 5890 nM | 1090 nM | 0.62 | 43% | 81% | 5.41 |
| Ac-RC[NMeA]R[dF]R[dW]C-NH2 (disulfide 2-8; SMILES CC(=O)N[C@@H](CCCNC(=N)N)C(=O)N[C@H]1CSSC[C@@H](C(N)=O)NC(=O)[C@@H](Cc2c[nH]c3ccccc23)NC(=O)[C@H](CCCNC(=N)N)NC(=O)[C@@H](Cc2ccccc2)NC(=O)[C@H](CCCNC(=N)N)NC(=O)[C@H](C)N(C)C1=O) [CTX-1269] | 121 nM | 13 nM | 2.56 | 39% | 92% | 9.31 |
| Ac-RC[dA]R[dF]R[dW]C-NH2 (disulfide 2-8; SMILES CC(=O)N[C@@H](CCCNC(=N)N)C(=O)N[C@H]1CSSC[C@@H](C(N)=O)NC(=O)[C@@H](Cc2c[nH]c3ccccc23)NC(=O)[C@H](CCCNC(=N)N)NC(=O)[C@@H](Cc2ccccc2)NC(=O)[C@H](CCCNC(=N)N)NC(=O)[C@@H](C)NC1=O) [CTX-1263] | 11 nM | 6.5 nM | 1.73 | 69% | 93% | 1.62 |
| Ac-RC[Aib]R[dF][Cit]WC-NH2 (disulfide 2-8) [CTX-1270] | 52 nM | 27 nM | 2.49 | 14% | 98% | 1.88 |
| Ac-RCAR[dF]RWC-NH2 (disulfide 2-8; SMILES CC(=O)N[C@@H](CCCNC(=N)N)C(=O)N[C@H]1CSSC[C@@H](C(N)=O)NC(=O)[C@H](Cc2c[nH]c3ccccc23)NC(=O)[C@H](CCCNC(=N)N)NC(=O)[C@@H](Cc2ccccc2)NC(=O)[C@H](CCCNC(=N)N)NC(=O)[C@H](C)NC1=O) [CTX-1267] | 12 nM | 3 nM | 0.5 | 40% | 96% | 4.07 |
| {CH2CO}-[dA]R[dF]RFC-NH2 (thioether N-6; SMILES C[C@H]1NC(=O)CSC[C@@H](C(N)=O)NC(=O)[C@H](Cc2ccccc2)NC(=O)[C@H](CCCNC(=N)N)NC(=O)[C@@H](Cc2ccccc2)NC(=O)[C@H](CCCNC(=N)N)NC1=O) [CTX-1657] | 8810 nM | 2470 nM | 1.42 | 30% | 78% | 3.56 |
| Ac-RC[dA]R[dF]R[d2Nal]C-NH2 (disulfide 2-8) [CTX-1264] | 3.7 nM | 13 nM | 0.14 | 44% | 80% | 0.29 |
| {CH2CO}-[dA]H[dF]RFC-NH2 (thioether N-6; SMILES C[C@H]1NC(=O)CSC[C@@H](C(N)=O)NC(=O)[C@H](Cc2ccccc2)NC(=O)[C@H](CCCNC(=N)N)NC(=O)[C@@H](Cc2ccccc2)NC(=O)[C@H](Cc2c[nH]cn2)NC1=O) [CTX-1656] | 2300 nM | 1400 nM | 1 | 86% | 98% | 1.64 |
| {CH2CO}-[Aib]R[dF]RFC-NH2 (thioether N-6; SMILES CC1(C)NC(=O)CSC[C@@H](C(N)=O)NC(=O)[C@H](Cc2ccccc2)NC(=O)[C@H](CCCNC(=N)N)NC(=O)[C@@H](Cc2ccccc2)NC(=O)[C@H](CCCNC(=N)N)NC1=O) [CTX-1651] | > 10000 nM | 1190 nM | 1.45 |  | 92% | > 8 |
